Laboratory results: patent US20240270846A1 (published 2024)

B1: CE115HA000 G100bE one-arm antibody (antibody, human IgG1, kappa, L234A L235A, N297A, name in Kabat numbering)
heavy: QVQLVESGGGVVQPGRSLRLSCAASGFTFSNAWMHWVRQAPGKGLEWVAQIKAKSNNYATYYAESVKGRFTISRDDSKNSLYLQMNSLKTEDTAVYYCRYVHYGAYYEVDAWGQGTTVTVSSASTKGPSVFPLAPSSKSTSGGTAALGCLVKDYFPEPVTVSWNSGALTSGVHTFPAVLQSSGLYSLSSVVTVPSSSLGTQTYICNVNHKPSNTKVDKKVEPKSCDKTHTCPPCPAPEAAGGPSVFLFPPKPKDTLMISRTPEVTCVVVDVSHEDPEVKFNWYVDGVEVHNAKTKPREEQYASTYRVVSVLTVLHQDWLNGKEYKCKVSNKALPAPIEKTISKAKGQPREPQVYTLPPSRCELTKNQVSLSCAVKGFYPSDIAVEWESNGQPENNYKTTPPVLDSDGSFFLVSKLTVDKSRWQQGNVFSCSVMHEALHNHYTQKSLSLSPDYKDDDDK
chain: EPKSSDKTHTCPPCPAPELLGGPSVFLFPPKPKDTLMISRTPEVTCVVVDVSHEDPEVKFNWYVDGVEVHNAKTKPREEQYNSTYRVVSVLTVLHQDWLNGKEYKCKVSNKALPAPIEKTISKAKGQPREPQVCTLPPSRDELTKNQVSLWCLVKGFYPSDIAVEWESNGQPENNYKTTPPVLDSDGSFFLYSKLTVDKSRWQQGNVFSCSVMHEALHNRYTQKSLSLSP
light: DIVMTQSPLSLPVTPGEPASISCRSSQSLVHSNRNTYLHWYQQKPGQAPRLLIYKVSNRFSGVPDRFSGSGSGTDFTLKISRVEAEDVGVYYCGQGTQVPYTFGQGTKLEIKRTVAAPSVFIFPPSDEQLKSGTASVVCLLNNFYPREAKVQWKVDNALQSGNSQESVTEQDSKDSTYSLSSTLTLSKADYEKHKVYACEVTHQGLSSPVTKSFNRGEC
notes: one-arm antibody (one Fab)
B2: CE115HA000 G100bF one-arm antibody (antibody, human IgG1, kappa, L234A L235A, N297A, name in Kabat numbering)
heavy: QVQLVESGGGVVQPGRSLRLSCAASGFTFSNAWMHWVRQAPGKGLEWVAQIKAKSNNYATYYAESVKGRFTISRDDSKNSLYLQMNSLKTEDTAVYYCRYVHYGAYYFVDAWGQGTTVTVSSASTKGPSVFPLAPSSKSTSGGTAALGCLVKDYFPEPVTVSWNSGALTSGVHTFPAVLQSSGLYSLSSVVTVPSSSLGTQTYICNVNHKPSNTKVDKKVEPKSCDKTHTCPPCPAPEAAGGPSVFLFPPKPKDTLMISRTPEVTCVVVDVSHEDPEVKFNWYVDGVEVHNAKTKPREEQYASTYRVVSVLTVLHQDWLNGKEYKCKVSNKALPAPIEKTISKAKGQPREPQVYTLPPSRCELTKNQVSLSCAVKGFYPSDIAVEWESNGQPENNYKTTPPVLDSDGSFFLVSKLTVDKSRWQQGNVFSCSVMHEALHNHYTQKSLSLSPDYKDDDDK
chain: EPKSSDKTHTCPPCPAPELLGGPSVFLFPPKPKDTLMISRTPEVTCVVVDVSHEDPEVKFNWYVDGVEVHNAKTKPREEQYNSTYRVVSVLTVLHQDWLNGKEYKCKVSNKALPAPIEKTISKAKGQPREPQVCTLPPSRDELTKNQVSLWCLVKGFYPSDIAVEWESNGQPENNYKTTPPVLDSDGSFFLYSKLTVDKSRWQQGNVFSCSVMHEALHNRYTQKSLSLSP
light: DIVMTQSPLSLPVTPGEPASISCRSSQSLVHSNRNTYLHWYQQKPGQAPRLLIYKVSNRFSGVPDRFSGSGSGTDFTLKISRVEAEDVGVYYCGQGTQVPYTFGQGTKLEIKRTVAAPSVFIFPPSDEQLKSGTASVVCLLNNFYPREAKVQWKVDNALQSGNSQESVTEQDSKDSTYSLSSTLTLSKADYEKHKVYACEVTHQGLSSPVTKSFNRGEC
notes: one-arm antibody (one Fab)
B3: CE115HA000 G100bL one-arm antibody (antibody, human IgG1, kappa, L234A L235A, N297A, name in Kabat numbering)
heavy: QVQLVESGGGVVQPGRSLRLSCAASGFTFSNAWMHWVRQAPGKGLEWVAQIKAKSNNYATYYAESVKGRFTISRDDSKNSLYLQMNSLKTEDTAVYYCRYVHYGAYYLVDAWGQGTTVTVSSASTKGPSVFPLAPSSKSTSGGTAALGCLVKDYFPEPVTVSWNSGALTSGVHTFPAVLQSSGLYSLSSVVTVPSSSLGTQTYICNVNHKPSNTKVDKKVEPKSCDKTHTCPPCPAPEAAGGPSVFLFPPKPKDTLMISRTPEVTCVVVDVSHEDPEVKFNWYVDGVEVHNAKTKPREEQYASTYRVVSVLTVLHQDWLNGKEYKCKVSNKALPAPIEKTISKAKGQPREPQVYTLPPSRCELTKNQVSLSCAVKGFYPSDIAVEWESNGQPENNYKTTPPVLDSDGSFFLVSKLTVDKSRWQQGNVFSCSVMHEALHNHYTQKSLSLSPDYKDDDDK
chain: EPKSSDKTHTCPPCPAPELLGGPSVFLFPPKPKDTLMISRTPEVTCVVVDVSHEDPEVKFNWYVDGVEVHNAKTKPREEQYNSTYRVVSVLTVLHQDWLNGKEYKCKVSNKALPAPIEKTISKAKGQPREPQVCTLPPSRDELTKNQVSLWCLVKGFYPSDIAVEWESNGQPENNYKTTPPVLDSDGSFFLYSKLTVDKSRWQQGNVFSCSVMHEALHNRYTQKSLSLSP
light: DIVMTQSPLSLPVTPGEPASISCRSSQSLVHSNRNTYLHWYQQKPGQAPRLLIYKVSNRFSGVPDRFSGSGSGTDFTLKISRVEAEDVGVYYCGQGTQVPYTFGQGTKLEIKRTVAAPSVFIFPPSDEQLKSGTASVVCLLNNFYPREAKVQWKVDNALQSGNSQESVTEQDSKDSTYSLSSTLTLSKADYEKHKVYACEVTHQGLSSPVTKSFNRGEC
notes: one-arm antibody (one Fab)
B4: CE115HA000 G100bS one-arm antibody (antibody, human IgG1, kappa, L234A L235A, N297A, name in Kabat numbering)
heavy: QVQLVESGGGVVQPGRSLRLSCAASGFTFSNAWMHWVRQAPGKGLEWVAQIKAKSNNYATYYAESVKGRFTISRDDSKNSLYLQMNSLKTEDTAVYYCRYVHYGAYYSVDAWGQGTTVTVSSASTKGPSVFPLAPSSKSTSGGTAALGCLVKDYFPEPVTVSWNSGALTSGVHTFPAVLQSSGLYSLSSVVTVPSSSLGTQTYICNVNHKPSNTKVDKKVEPKSCDKTHTCPPCPAPEAAGGPSVFLFPPKPKDTLMISRTPEVTCVVVDVSHEDPEVKFNWYVDGVEVHNAKTKPREEQYASTYRVVSVLTVLHQDWLNGKEYKCKVSNKALPAPIEKTISKAKGQPREPQVYTLPPSRCELTKNQVSLSCAVKGFYPSDIAVEWESNGQPENNYKTTPPVLDSDGSFFLVSKLTVDKSRWQQGNVFSCSVMHEALHNHYTQKSLSLSPDYKDDDDK
chain: EPKSSDKTHTCPPCPAPELLGGPSVFLFPPKPKDTLMISRTPEVTCVVVDVSHEDPEVKFNWYVDGVEVHNAKTKPREEQYNSTYRVVSVLTVLHQDWLNGKEYKCKVSNKALPAPIEKTISKAKGQPREPQVCTLPPSRDELTKNQVSLWCLVKGFYPSDIAVEWESNGQPENNYKTTPPVLDSDGSFFLYSKLTVDKSRWQQGNVFSCSVMHEALHNRYTQKSLSLSP
light: DIVMTQSPLSLPVTPGEPASISCRSSQSLVHSNRNTYLHWYQQKPGQAPRLLIYKVSNRFSGVPDRFSGSGSGTDFTLKISRVEAEDVGVYYCGQGTQVPYTFGQGTKLEIKRTVAAPSVFIFPPSDEQLKSGTASVVCLLNNFYPREAKVQWKVDNALQSGNSQESVTEQDSKDSTYSLSSTLTLSKADYEKHKVYACEVTHQGLSSPVTKSFNRGEC
notes: one-arm antibody (one Fab)
B5: CE115HA000 G100bY one-arm antibody (antibody, human IgG1, kappa, L234A L235A, N297A, name in Kabat numbering)
heavy: QVQLVESGGGVVQPGRSLRLSCAASGFTFSNAWMHWVRQAPGKGLEWVAQIKAKSNNYATYYAESVKGRFTISRDDSKNSLYLQMNSLKTEDTAVYYCRYVHYGAYYYVDAWGQGTTVTVSSASTKGPSVFPLAPSSKSTSGGTAALGCLVKDYFPEPVTVSWNSGALTSGVHTFPAVLQSSGLYSLSSVVTVPSSSLGTQTYICNVNHKPSNTKVDKKVEPKSCDKTHTCPPCPAPEAAGGPSVFLFPPKPKDTLMISRTPEVTCVVVDVSHEDPEVKFNWYVDGVEVHNAKTKPREEQYASTYRVVSVLTVLHQDWLNGKEYKCKVSNKALPAPIEKTISKAKGQPREPQVYTLPPSRCELTKNQVSLSCAVKGFYPSDIAVEWESNGQPENNYKTTPPVLDSDGSFFLVSKLTVDKSRWQQGNVFSCSVMHEALHNHYTQKSLSLSPDYKDDDDK
chain: EPKSSDKTHTCPPCPAPELLGGPSVFLFPPKPKDTLMISRTPEVTCVVVDVSHEDPEVKFNWYVDGVEVHNAKTKPREEQYNSTYRVVSVLTVLHQDWLNGKEYKCKVSNKALPAPIEKTISKAKGQPREPQVCTLPPSRDELTKNQVSLWCLVKGFYPSDIAVEWESNGQPENNYKTTPPVLDSDGSFFLYSKLTVDKSRWQQGNVFSCSVMHEALHNRYTQKSLSLSP
light: DIVMTQSPLSLPVTPGEPASISCRSSQSLVHSNRNTYLHWYQQKPGQAPRLLIYKVSNRFSGVPDRFSGSGSGTDFTLKISRVEAEDVGVYYCGQGTQVPYTFGQGTKLEIKRTVAAPSVFIFPPSDEQLKSGTASVVCLLNNFYPREAKVQWKVDNALQSGNSQESVTEQDSKDSTYSLSSTLTLSKADYEKHKVYACEVTHQGLSSPVTKSFNRGEC
notes: one-arm antibody (one Fab)
B6: CE115HA000 H96G one-arm antibody (antibody, human IgG1, kappa, L234A L235A, N297A, name in Kabat numbering)
heavy: QVQLVESGGGVVQPGRSLRLSCAASGFTFSNAWMHWVRQAPGKGLEWVAQIKAKSNNYATYYAESVKGRFTISRDDSKNSLYLQMNSLKTEDTAVYYCRYVGYGAYYGVDAWGQGTTVTVSSASTKGPSVFPLAPSSKSTSGGTAALGCLVKDYFPEPVTVSWNSGALTSGVHTFPAVLQSSGLYSLSSVVTVPSSSLGTQTYICNVNHKPSNTKVDKKVEPKSCDKTHTCPPCPAPEAAGGPSVFLFPPKPKDTLMISRTPEVTCVVVDVSHEDPEVKFNWYVDGVEVHNAKTKPREEQYASTYRVVSVLTVLHQDWLNGKEYKCKVSNKALPAPIEKTISKAKGQPREPQVYTLPPSRCELTKNQVSLSCAVKGFYPSDIAVEWESNGQPENNYKTTPPVLDSDGSFFLVSKLTVDKSRWQQGNVFSCSVMHEALHNHYTQKSLSLSPDYKDDDDK
chain: EPKSSDKTHTCPPCPAPELLGGPSVFLFPPKPKDTLMISRTPEVTCVVVDVSHEDPEVKFNWYVDGVEVHNAKTKPREEQYNSTYRVVSVLTVLHQDWLNGKEYKCKVSNKALPAPIEKTISKAKGQPREPQVCTLPPSRDELTKNQVSLWCLVKGFYPSDIAVEWESNGQPENNYKTTPPVLDSDGSFFLYSKLTVDKSRWQQGNVFSCSVMHEALHNRYTQKSLSLSP
light: DIVMTQSPLSLPVTPGEPASISCRSSQSLVHSNRNTYLHWYQQKPGQAPRLLIYKVSNRFSGVPDRFSGSGSGTDFTLKISRVEAEDVGVYYCGQGTQVPYTFGQGTKLEIKRTVAAPSVFIFPPSDEQLKSGTASVVCLLNNFYPREAKVQWKVDNALQSGNSQESVTEQDSKDSTYSLSSTLTLSKADYEKHKVYACEVTHQGLSSPVTKSFNRGEC
notes: one-arm antibody (one Fab)

Each binder was assayed against T1, CD3 epsilon homodimer protein (UniProt P07766 23-126) (assay: SPR Biacore T200, CD3 epsilon homodimer on CM4 chip, antibody as analyte;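 further: Amine-coupled CD3 epsilon homodimer, run at 25 °C in HBS-EP+ buffer, ratio is bound amount of each single-residue H chain variant over that of the parent antibody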).
T1 construct: Immobilized on Sensor chip CM4 by amine coupling; construct not described; also called CD3 (CD3 epsilon)
T1 sequence (P07766 23-126): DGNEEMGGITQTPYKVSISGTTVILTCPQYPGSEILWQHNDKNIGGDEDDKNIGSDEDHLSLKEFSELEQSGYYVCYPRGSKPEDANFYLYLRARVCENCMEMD

**Q.** For B1, which “ratio of amounts bound (Y/X vs CE115HA000)” value (“ratio of amounts bound” below) is on record?
**A.** The value was 0.26.

**Q.** How did the “ratio of amounts bound” value turn out when B2 was run?
**A.** Its value is 0.3.

**Q.** With B3 as the binder, how does the “ratio of amounts bound” value read?
**A.** The value was 0.27.

**Q.** How did the “ratio of amounts bound” value turn out when B4 was run?
**A.** The value was 0.52.

**Q.** How did the “ratio of amounts bound” value turn out when B5 was run?
**A.** The value was 0.23.

**Q.** With B6 as the binder, how does the “ratio of amounts bound” value read?
**A.** The value was 0.43.
